Reference: paper PMC4005678

Molecular target: Klf4 ZnF1-3 DNA-binding domain (mouse) (UniProt Q60793)
Assay: fluorescence polarization
Conditions: FP: 20 mM Tris-HCl pH 7.5, 150 mM NaCl, 5% (v/v) glycerol, 0.5 mM TCEP, ~22 C, probe 10 nM (WT) or 1 nM (E446A)

Klf4 ZnF1-3 DNA-binding domain (mouse), sequence (Q60793 396-483): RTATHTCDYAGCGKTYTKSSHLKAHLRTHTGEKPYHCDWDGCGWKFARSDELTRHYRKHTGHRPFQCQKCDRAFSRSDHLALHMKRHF

Sequence: GAGGCGTGGC / TTGCCACGCCTC [Klf4 site 5caC/M]
- binding signal (fold weaker than M/M) (5caC at position 5 of strand 1, 5mC at position 7 of strand 2): 6

Sequence: GAGGCGTGGC / TTGCCACGCCTC [Klf4 site 5fC/M]
- binding signal (fold weaker than M/M) (5fC at position 5 of strand 1, 5mC at position 7 of strand 2): 3

Sequence: GAGGCGTGGC / TTGCCACGCCTC [Klf4 site 5hmC/M]
- binding signal (fold weaker than M/M) (5hmC at position 5 of strand 1, 5mC at position 7 of strand 2): 2

Sequence: GAGGCGTGGC / TTGCCACGCCTC [Klf4 site C/C]
- binding signal (fold weaker than M/M): 1.5

Sequence: GAGGCGTGGC / TTGCCACGCCTC [Klf4 site C/M]
- binding signal (fold weaker than M/M) (repeat series, C at position 5 of strand 1, 5mC at position 7 of strand 2): 1.5
- binding signal (fold Kd vs M/M) (text: difference only ~40%, C at position 5 of strand 1, 5mC at position 7 of strand 2): 1.4
